The source of these data is patent publication US20150140001A1 (Scripps Research, published 2015).

For test [1], the target named is T1, recombinant mouse clec14a CTLD Fc fusion protein (mCTLD-Fc) (mouse; human, UniProt Q8VCP9 31-172).
T1 construct: also called mouse CTLD-Fc; not shown: hinge and CH2-CH3 domain of human IgG1, encoded 3' of the cloning site of the modified pCEP4 vector
T1 sequence: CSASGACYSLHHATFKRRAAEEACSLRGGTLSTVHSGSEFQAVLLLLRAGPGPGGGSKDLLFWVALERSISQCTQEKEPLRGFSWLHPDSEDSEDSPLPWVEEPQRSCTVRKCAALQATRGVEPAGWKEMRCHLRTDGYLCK
The test is described as follows: ELISA, coated mCTLD-Fc (25 nM), 67 nM IgG. Here is the method: (§1) 25 nM recombinant hCTLD-Fc, mCTLD-Fc, or Fc fragment of IgG1 in PBS was added to the 96-wells of a microtiter plate. After incubation overnight at 37° C., plates were washed three times with PBS containing 0.05% (v/v) Tween 20 (PBST), and incubated with 3% (w/v) BSA in PBST for 1 hr at 37° C. Plates were then incubated with 67 nM clec14a-CTLD IgG in PBST containing 3% (w/v) BSA for 3 hr at 37° C. Plates were washed twice with PBST and incubated with horseradish […] (HRP)-conjugated anti-human lambda light chain antibody (Bethyl Laboratories, Montgomery, Tex., USA) diluted 1:1000) in PBST containing 3% (w/v) BSA, for 1 hr at 37° C.

Test [2] addresses T2, fusion protein comprising an amino acid fragment from 1st amino acid to 42nd amino acid in hCTLD (human, UniProt Q86T13 31-72).
T2 construct: also called N-terminal fragment of hCTLD-Fc (1-42); not shown: Fc
T2 chain: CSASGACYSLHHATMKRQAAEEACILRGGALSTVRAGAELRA
The test is described as follows: epitope mapping ELISA, coated fragment-Fc 10 µg/ml, IgG 10 µg/ml. On the procedure: Each of 10 μg/ml hCTLD-Fc, Fc, or N-terminal or C-terminal fragments of hCTLD-Fc in PBS was added to 96-well plates. Plates were incubated overnight at 37° C., washed three times with PBS containing 0.05% (v/v) Tween 20 (PBST), and incubated with 3% (w/v) BSA in PBST for 1 hr at 37° C. Plates were incubated with 10 μg/ml clec14a-CTLD IgG in PBST containing 3% (w/v) BSA for 2 hr at 37° C. Following two times washings with PBST, horseradish […] (HRP)-conjugated anti-human lambda light chain antibody (1:1000; Bethyl Laboratories, TX, USA) in PBST containing 3% (w/v) BSA was incubated for 1 hr at 37° C.
For fine mapping of epitope, specificity of clec14a-CTLD IgGs to Clec14awtCTLD and the fragments of hCTLD-Fc (FIG. 10a) were tested by ELISA.
A general note: In an ELISA, binding on a coated surface is turned into a signal by an enzyme label.

Test [3] deals with T1, recombinant mouse clec14a CTLD Fc …. The test is described as follows: phage enzyme immunoassay (phage ELISA) on mCTLD-Fc. On the procedure:
(§2) A human synthetic scFv antibody library was precleared of Fc binders and screened by alternative biopanning with recombinant hCTLD-Fc or mCTLD-Fc. b-d. Ninety-six phage clones (1-96) displaying scFv were randomly selected and the supernatants were analyzed by phage ELISA. Reactivity of the selected scFv clones to human and mouse CTLDs was assayed by measuring absorbance at 450 nm. Arrows indicate scFv clones reactive to hCTLD-Fc (▪, black) and mCTLD-Fc (▪, grey), and not reactive to Fc (□). BSA ( ) served as a background control.
(§3) Three rounds of biopanning were carried out with immunotubes (Immuno™ tube maxisorp, Nunc, Rochester, N.Y., USA) or magnetic beads (Dynabeads M-270 epoxy, Invitrogen) coated with 4 μg recombinant human (hCTLD-Fc) or mouse (mCTLD-Fc) fusion protein to select clones with cross-species reactivity, as described previously (Barbas C F. Phage display: a laboratory manual. Cold Spring Harbor, N.Y.: Cold Spring Harbor Laboratory Press; 2001; Vestweber D. Lymphocyte trafficking through blood and lymphatic vessels: more than just selectins, chemokines and integrins. European Journal of Immunology. 2003; 33(5):1361-4). Ninety-six phage clones were randomly selected from colonies grown on output plates and tested for reactivity to human and mouse CTLDs by phage enzyme immunoassay. DNA of the final scFv clones was sequenced and classified as four scFv clones identified having different complementarity determining region sequences.

Test [4] addresses T3, recombinant human clec14a CTLD Fc fusion protein (hCTLD-Fc) (human, UniProt Q86T13 31-172).
T3 construct: also called human CTLD-Fc; wtCTLD-Fc; not shown: hinge and CH2-CH3 domain of human IgG1, encoded 3' of the cloning site of the modified pCEP4 vector
T3 sequence: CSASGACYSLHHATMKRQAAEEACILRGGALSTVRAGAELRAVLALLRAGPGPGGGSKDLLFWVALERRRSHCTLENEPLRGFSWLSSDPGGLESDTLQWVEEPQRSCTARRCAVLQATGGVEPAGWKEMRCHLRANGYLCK
The test is described as follows: phage enzyme immunoassay (phage ELISA) on hCTLD-Fc. On the procedure: as §2
as §3, with “DNA of the final scFv clones was sequenced and classified as four scFv clones identified having different complementarity determining region sequences.” left out

Test [5] has as its target T3, recombinant human clec14a CTLD Fc …. Put plainly: ELISA, coated hCTLD-Fc (25 nM), 67 nM IgG. On the procedure:
as §1

B1: clec14a-CTLD IgG clone 1 (antibody, V domains shown)
VH: EVQLLESGGGLVQPGGSLRLSCAASGFTFSGYDMSWVRQAPGKGLEWVSGIYPDGGNTYYADSVKGRFTISRDNSKNTLYLQMNSLRAEDTAVYYCARGATWWVLGPFDYWGQGTLVTVSS
VL: QSVLTQPPSASGTPGQRVTISCTGSSSNIGNNSVTWYQQLPGTAPKLLIYADSHRPSGVPDRFSGSKSGTSASLAISGLRSEDEADYYCGAWDDSLSGYVFGGGTKLTVL
notes: scFv converted to IgG; Lambda light chain, detected with anti-human lambda antibody
Turning to B1, the binding result in test [1] and in test [2] was “binds” each time.

B2: scFv clone 2 (phage-displayed) (scFv, V domains shown)
VH: EVQLLESGGGLVQPGGSLRLSCAASGFTFSSYDMSWVRQAPGKGLEWVSVISPDSSSTYYADSVKGRFTISRDNSKNTLHLQMNSLRAEDTAVYYCARHTGWQSRPHTYYDYGMDVWGQGTLVTVSS
VL: QSVLTQPPSASGTPGQRVTISCSGSSSNIGNNAVTWYQQLPGTAPKLLIYSDNHRPSGVPDRFSGSKSGTSASLAISGLRSEDEADYYCGTWDASLSGYVFGGGTKLTVL
With B2, the binding result in test [3] is “binds”.

B3: clec14a-CTLD IgG clone 2 (antibody, V domains shown)
VH: EVQLLESGGGLVQPGGSLRLSCAASGFTFSSYDMSWVRQAPGKGLEWVSVISPDSSSTYYADSVKGRFTISRDNSKNTLHLQMNSLRAEDTAVYYCARHTGWQSRPHTYYDYGMDVWGQGTLVTVSS
VL: QSVLTQPPSASGTPGQRVTISCSGSSSNIGNNAVTWYQQLPGTAPKLLIYSDNHRPSGVPDRFSGSKSGTSASLAISGLRSEDEADYYCGTWDASLSGYVFGGGTKLTVL
notes: Lambda light chain
In the case of B3, the binding result in test [1] and in test [2] was “binds” each time.

B4: scFv clone 3 (phage-displayed) (scFv, V domains shown)
VH: EVQLLESGGGLVQPGGSLRLSCAASGFTFSDYYMSWVRQAPGKGLEWVSLISYDGGSTYYADSVKGRFTISRDNSKNTLYLQMNSLRAEDTAVYYCARSNDWFDYWGQGTLVTVSS
VL: QSVLTQPPSASGTPGQRVTISCSGSSSNIGSNNVYWYQQLPGTAPKLLIYYDSQRPSGVPDRFSGSKSGTSASLAISGLRSEDEADYYCGAWDDSLSAYVFGGGTKLTVL
For the molecule B4, the binding result in test [4] and in test [3] was “binds” in each case.

B5: scFv clone 1 (phage-displayed) (scFv, V domains shown)
VH: EVQLLESGGGLVQPGGSLRLSCAASGFTFSGYDMSWVRQAPGKGLEWVSGIYPDGGNTYYADSVKGRFTISRDNSKNTLYLQMNSLRAEDTAVYYCARGATWWVLGPFDYWGQGTLVTVSS
VL: QSVLTQPPSASGTPGQRVTISCTGSSSNIGNNSVTWYQQLPGTAPKLLIYADSHRPSGVPDRFSGSKSGTSASLAISGLRSEDEADYYCGAWDDSLSGYVFGGGTKLTVL
Take B5: the binding result in test [3] is listed as “binds”.

B6: clec14a-CTLD IgG clone 3 (antibody, V domains shown)
VH: EVQLLESGGGLVQPGGSLRLSCAASGFTFSDYYMSWVRQAPGKGLEWVSLISYDGGSTYYADSVKGRFTISRDNSKNTLYLQMNSLRAEDTAVYYCARSNDWFDYWGQGTLVTVSS
VL: QSVLTQPPSASGTPGQRVTISCSGSSSNIGSNNVYWYQQLPGTAPKLLIYYDSQRPSGVPDRFSGSKSGTSASLAISGLRSEDEADYYCGAWDDSLSAYVFGGGTKLTVL
notes: Lambda light chain
For B6, the binding result in test [1] and in test [5] was “binds” in each case.
